Drawing on patent US20230220056A1 (KOOKMIN UNIVERSITY INDUSTRY ACADEMY COOPERATION FOUNDATION, published 2023), this text covers Kd for 4 molecules.

Substitutions are numbered along the chain they refer to.

The target in test [1] is T1, recombinant human GRP94 (human, UniProt P14625 22-799, limits assumed).
T1 construct: also called rhGRP94; glucose-regulated protein 94
Put plainly: ELISA, 100 ng rhGRP94 coated per well, IgG 0-500 nM; no unit beside the value, concentration axis in nM and the dotted drop line meets it at about 0.5. As for the experimental part:
(§1) Each well of 96-well plates was coated with 0.1 μg of recombinant human GRP94 (rhGRP94), blocked with 3% (w/v) bovine serum albumin (BSA) in phosphate buffered saline (PBS) for 2 hours at 37° C., and incubated with 100 μL of GRP94 targeting IgG (20 μg/mL) for 2 hours at 37° C. The plates were washed thrice with 0.05% PBS-T, and 100 μL of a 500:1 dilution of the secondary antibody anti-human Fc Ab (Sigma-Aldrich) was added to each well. Incubation at 37° C. for 1 hour was followed by three rounds of washing with 0.05% PBS-T. Then, 100 μL of 3,3′,5,5′-tetramethylbenzidine (1-step ultra TMB) substrate solution was added to each well. Finally, optical densities were measured at 450 nm using a microplate reader (Synergy H1, BioTek).
(§2) In this regard, each well of 96-well plates was coated with 100 ng of rhGRP94 and blocked with 3% (w/v) bovine serum albumin (BSA) in PBS at 37° C. for 2 hours. Next, the plates were incubated with a concentration gradient of 0 nM to 500 nM of each clone for the GRP94 IgGs at 37° C. for 2 hours. The use of a secondary antibody and the measurement of optical density were conducted as described for the ELISA.
(In general: An ELISA detects its analyte on a solid surface through an enzyme-linked reagent.)

Test [2] addresses T1, recombinant human GRP94. Put plainly: ELISA, 100 ng rhGRP94 coated per well, IgG 0-500 nM; no unit beside the value, concentration axis in nM and the dotted drop line meets it at about 0.1. As for the experimental part:
as §1, §2

For test [3], the target named is T1, recombinant human GRP94. As to the kind of experiment: ELISA, 100 ng rhGRP94 coated per well, IgG 0-500 nM; no unit beside the value, concentration axis in nM and the dotted drop line meets it at about 1.2. As for the experimental part: as §1, §2
Test [4] concerns the target T1, recombinant human GRP94. As to the kind of experiment: ELISA, 100 ng rhGRP94 coated per well, IgG 0-500 nM; no unit beside the value, concentration axis in nM and the dotted drop line meets it at about 0.15. The method, then:
as §1, §2

T1 sequence (P14625 22-799 limits assumed): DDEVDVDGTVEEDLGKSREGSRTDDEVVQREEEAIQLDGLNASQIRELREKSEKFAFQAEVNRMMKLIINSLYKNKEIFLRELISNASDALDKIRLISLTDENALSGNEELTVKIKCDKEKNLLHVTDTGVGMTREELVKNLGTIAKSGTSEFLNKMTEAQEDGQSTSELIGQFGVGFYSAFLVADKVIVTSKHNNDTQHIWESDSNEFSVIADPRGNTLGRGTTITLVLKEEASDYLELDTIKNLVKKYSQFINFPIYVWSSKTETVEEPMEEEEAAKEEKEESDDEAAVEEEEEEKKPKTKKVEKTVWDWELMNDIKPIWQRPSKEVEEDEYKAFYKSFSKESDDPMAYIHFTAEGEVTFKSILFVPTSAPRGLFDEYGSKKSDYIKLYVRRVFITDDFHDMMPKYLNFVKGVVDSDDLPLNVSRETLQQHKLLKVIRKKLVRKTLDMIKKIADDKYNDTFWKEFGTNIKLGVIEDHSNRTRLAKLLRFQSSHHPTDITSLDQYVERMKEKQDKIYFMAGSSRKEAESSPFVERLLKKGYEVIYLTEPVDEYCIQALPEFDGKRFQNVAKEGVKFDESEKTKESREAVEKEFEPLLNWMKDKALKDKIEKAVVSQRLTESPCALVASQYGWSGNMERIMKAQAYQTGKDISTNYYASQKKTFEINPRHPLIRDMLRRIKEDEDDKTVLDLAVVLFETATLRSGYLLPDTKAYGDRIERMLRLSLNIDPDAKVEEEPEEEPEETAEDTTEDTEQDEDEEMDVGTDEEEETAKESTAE

B1: anti-GRP94 human IgG antibody B5 (antibody, V domains shown)
VH: EVQLLESGGGLVQPGGSLRLSCAASGFTFSNYYMSWVRQAPGKGLEWVSGIYPNSGSTYYADSVKGRFTISRDNSKNTLYLQMNSLRAEDTAVYYCARDPLHPARFPFDYWGQGTLVTVSS
VL: QSVLTQPPSASGTPGQRVTISCTGSSSNIGNNAVSWYQQLPGTAPKLLIYADSHRPSGVPDRFSGSKSGTSASLAISGLRSEDEADYYCGAWDASLNAYVFGGGTKLTVL
notes: Tested as whole human IgG made from the selected scFv's VH and VL genes in pcDNA3.1 / Expi293 cells; also called GRP94 IgG B5
Usually Kd stands for the constant that tells how readily two partners part at equilibrium. For the molecule B1, the dissociation constant (Kd) in the test with recombinant human GRP94 [1] is 0.467 nM.

B2: anti-GRP94 human IgG antibody E5 (antibody, V domains shown)
VH: EVQLLESGGGLVQPGGSLRLSCAASGFTFSNYAMSWVRQAPGKGLEWVSGISSSSGSTYYADSVKGRFTTSRDNSKNTLYLQMNSLRAEDTAVYYCARDRHPFSPNWFDYWGQGTLVTVSS
VL: B1 VL with T23S, S26P, N31S, A33T, S35T, G90A, A91S, A94D, A98G
notes: Tested as whole human IgG; also called GRP94 IgG E5
Take B2: the Kd with recombinant human GRP94 [2] stood at 0.0997 nM.

B3: anti-GRP94 human IgG antibody 3G7 (antibody, V domains shown)
VH: EVQLLESGGGLVQPGGSLRLSCAASGFTFSNYSMSWVRQAPGKGLEWVSGIYYGSGNKYYADSVKGRFTISRDNSKNTLYLQMNSLRAEDTAVYYCAKNLASFDYWGQGTLVTVSS
VL: B1 VL with T23S, N31S, A33S, S35N, A51S, D52N, A91T, A94S, N97S, A98G
notes: Tested as whole human IgG; also called GRP94 IgG 3G7
On to B3, for which the Kd with recombinant human GRP94 [3] came out at 1.21 nM.

B4: anti-GRP94 human IgG antibody 2H5 (antibody, V domains shown)
VH: EVQLLESGGGLVQPGGSLRLSCAASGFTFSGYAMSWVRQAPGKGLEWVSAISHGGSSKYYADSVKGRFTISRDNSKNTLYLQMNSLRAEDTAVYYCAKDLLSPLQSIGSYDDAMDVWGQGTLVTVSS
VL: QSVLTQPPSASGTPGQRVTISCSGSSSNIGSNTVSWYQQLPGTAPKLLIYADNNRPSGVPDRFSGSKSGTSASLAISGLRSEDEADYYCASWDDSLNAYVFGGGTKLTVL
notes: Tested as whole human IgG; also called GRP94 IgG 2H5
B4: the Kd with recombinant human GRP94 [4] is 0.142 nM.
